Source: article PMC7984254 (Biochimica et biophysica acta. Molecular cell research, 2020)

Target: recombinant FGF14 protein (aa 64–252) (human, UniProt Q92915-2 64-252)
Test: SPR

Which koff does the source give for KFKESVFENAYVIYSSMLYR (peptide, UniProt Q92915-2 149-168, looked up) [FGF14^Y158A mutant peptide] here?
The koff was 0.158 s⁻¹.

And the kon?
Its kon is 23200 M⁻¹ s⁻¹.
